Assay results reported in patent US20100029568A1, “TIGHTER-BINDING C-PEPTIDE INHIBITORS OF HIV-1 ENTRY” (priority 2007, published 2010).

Tests used:
[1] = molecular target: Res 2 (L33S) Env from HIV-1 strain HXB2 (HIV-1 strain HXB2), P04578; experiment: cell-based or functional assay
[2] = molecular target: Res 3 Env (N637K) from HIV-1 strain HXB2 (HIV-1 strain HXB2), P04578; experiment: cell-based or functional assay
[3] = molecular target: Res 4 (SDTV) Env from HIV-1 strain HXB2 (HIV-1 strain HXB2), P04578; experiment: cell-based or functional assay
[4] = molecular target: V549E mutant Env (Res1) from HIV-1 strain HXB2 (HIV-1 strain HXB2), P04578; experiment: cell-based or functional assay
[5] = molecular target: wild type Env (gp120/gp41) from HIV-1 strain HXB2 (HIV-1 strain HXB2), P04578; experiment: cell-based or functional assay
N36 (HIV-1), P04578 [6] = experiment: estimated Kd; method not stated
N36 (HIV-1), P04578 [7] = experiment: estimated Kd; method not stated; reference is wild type C37 on N36

For HTTWMEWDREINKYISLIHSLIEESQNQQEKNEQELL (modifications not checked) [C37-KYI], the IC50, nM; inhibitory potency against pseudotyped HIV-1 [1] was 1 nM, the IC50, nM; inhibitory potency against pseudotyped HIV-1 [2] was 4.1 nM and the IC50, nM; inhibitory potency against pseudotyped HIV-1 [3] was 0.6 nM. It also gave an IC50, nM; inhibitory potency against pseudotyped HIV-1 [4] of 4.2 nM, an IC50, nM; inhibitory potency against pseudotyped HIV-1 [5] of 1 nM and a Kd (N36 (HIV-1), P04578 [6]) of 0.04 pM. For the same binder, the fold lower Kd than wild type C37 (N36 (HIV-1), P04578 [7]) was > 20 fold.
